Values joined by “and” are separate entries in the source; they are usually repeats but may differ in a detail not shown here. Equal entries are not always repeated. Ends that are not written are not given here. * marks the point of attachment. G0F = octasaccharide N-glycan with alpha-1,6 core fucose (Formula Ib, linkages Formula Ic), CC(=O)N[C@@H]1[C@@H](O)[C@H](O[C@@H]2O[C@H](CO)[C@@H](O[C@@H]3O[C@H](CO[C@H]4O[C@H](CO)[C@@H](O)[C@H](O)[C@@H]4O[C@@H]4O[C@H](CO)[C@@H](O)[C@H](O)[C@H]4NC(C)=O)[C@@H](O)[C@H](O[C@H]4O[C@H](CO)[C@@H](O)[C@H](O)[C@@H]4O[C@@H]4O[C@H](CO)[C@@H](O)[C@H](O)[C@H]4NC(C)=O)[C@@H]3O)[C@H](O)[C@H]2NC(C)=O)[C@@H](CO[C@@H]2O[C@@H](C)[C@@H](O)[C@@H](O)[C@@H]2O)O[C@H]1*
T1: PSA(67-79)-G0F (human, also: Asn3 N-glycosylated with octasaccharide carrying alpha-1,6 core fucose (G0F))
T1 construct: Synthetic glycopeptide (3.9 kDa as SPR analyte), made on Sieber Amide resin; For the ELISAs a biotinylated form was used (glutamic acid derivative with a PEG3-biotin side chain at the N-terminus); also called PSA(67-79)-GOF; glycopeptide of Formula Ib
T1 peptide: IRN(G0F)KSVILLGRHS-NH2

T2: Fucosylated PSA disaccharide glycopeptide (DP) (human, not fully specified (residue 3, C-terminus))
T2 construct: also called glycopeptide of Formula IV
T2 peptide: IRNKSVILLGRHS


Assays:
[1] = target: PSA in formalin-fixed, paraffin-embedded (FFPE) prostate tissue (human) (UniProt P07288); assay: IHC on FFPE tumor tissue array (Tour of Tumor), prostate core
PSA(67-79)-G0F [2] = target: T1, PSA(67-79)-G0F; assay: SPR, Biacore 8k, 37 C, antibody captured by anti-rabbit Fc, peptide as analyte, Langmuir fit
Procedure: (§1) 30 μg/ml of a Fcγ-fragment binding, polyclonal goat anti-Rabbit IgG (GARb-Fcγ, Jackson Laboratories) in 10 mM sodium acetate buffer (pH 4.5) was pre-concentrated in all 16 flow cells, and up to 10000 RU GARb-Fcγ were immobilized according to the manufacturer's instructions using EDC/NHS chemistry. Rabbit IgG antibody (150 kDa) containing rabbit B-cell primary cell culture supernatants were diluted three-fold with sample buffer and were captured for 2 min under a flow rate of 5 μl/min on 8 sample flow cells. The antibody Capture Level (CL) was quantified in response units (RU) for each antibody.
(§2) The non fucosylated peptide analyte PSA(67-79)-G2 (3.7 kDa) and the fucosylated peptide analyte PSA(67-79)-GOF (3.9 kDa) were diluted in sample buffer in concentration series of 0 nM (buffer), 11 nM, 33 nM, 100 nM, 300 nM, and 900 nM. The 100 nM analyte samples were injected twice as control. The analytes were injected at 30 μl/min for 3 min association time. After the association phase of the 900 nM analyte injection a report point (Binding Late) was set to quantify the signal response at antibody ligand saturation. The antibody antigen dissociation was monitored for 5 min. The GARb-Fcγ antibody capture system was regenerated by injection of 10 mM glycine pH 2 at 30 μl/min for 1 min, followed by two consecutive 1 min injections of 10 mM glycine pH 2.25 at 30 μl/min. Overlay plots of concentration dependent antigen binding were generated and kinetic rates were determined with the Biacore 8k evaluation software using a Langmuir fitting model with RMAX local. The antibody/antigen complex half-life was calculated in minutes according to the formula t_{1/2 diss}=ln(2)/60*kd.

PSA(67-79)-G0F [3] = target: T1, PSA(67-79)-G0F; assay: SPR, Biacore 8k, 37 C, antibody captured by anti-rabbit Fc, peptide as analyte
Procedure: as §1, §2
Molar Ratio (MR) indicating antibody-antigen binding stoichiometry was also determined and calculated as MR=(analyte Binding Late (RU)/antibody Capture Level (RU)) x (MW(antibody)/MW (analyte)).

[4] = target: T2, Fucosylated PSA disaccharide …; assay: IHC peptide inhibition, antibody pre-incubated with peptide
Procedure: FIG. 8. Inhibition of anti-1,6fucPSA antibody binding by fucosylated PSA disaccharide glycopeptide (DP) in IHC analysis of FFPE samples of prostate adenocarcinoma samples. From top to bottom rows, exemplary anti-1,6fucPSA antibodies, FIG. 8A: 2E9, 3B10, and 3H6 at 2.5 μg/ml, 2.5 μg/ml, and 2.5 μg/ml, respectively; FIG. 8B: 13C5, 2H9, and 2C11 at 3 μg/ml, 2.5 μg/ml, and 1 μg/ml, respectively. For FIG. 8A and FIG. 8B, antibodies were pre-incubated with, from left to right columns, PBS buffer (control) or DP at 5×10⁻⁹ M, 5×10⁻⁸ M, 5×10⁻⁷ M, 5×10⁻⁶ M, or 5×10⁻⁵ M.
To verify that anti-1,6fucPSA antibodies recognize specifically and selectively the core-fucosylated PSA epitope, staining specificity was tested by peptide inhibition analysis.

PSA(67-79)-G0F [5] = target: T1, PSA(67-79)-G0F; assay: SPR, Biacore 8k, 37 C, antibody captured by anti-rabbit Fc, 900 nM peptide injection
Procedure: as §1, §2

PSA(67-79)-G0F [6] = target: T1, PSA(67-79)-G0F; assay: Hit-ELISA, biotinylated peptide on streptavidin plate, supernatant of recombinant expression
Procedure: Subsequently Hit-ELISA (i.e. ELISAs testing the binding to the screening agents) was used to identify B-cells expressing antibodies having desired binding characteristics, i.e. binding the PSA(67-79)-GOF peptide and capable of discriminating from PSA(67-79)-G2 and Asn-GOF. Biotinylated screening agents PSA(67-79)-GOF, PSA(67-79)-G2 and Asn-GOF were immobilized on the surface of streptavidin-coated 96-well plates (Nunc) by incubation of 100 μl per well of 100 ng/ml solutions for 60 min at room temperature, respectively. The plates were washed and 30 μl of rabbit B-cell culture supernatant was transferred to each well and incubated for 1 h at room temperature. For the detection of antibodies bound to the screening agents, HRP-labeled F(ab′)₂ goat anti-rabbit Fcγ (Dianova) and ABTS substrate solution (Roche) were used according to manufacturer's instructions. 16 clones were identified that bound to PSA(67-79)-GOF and discriminated from the negative screening agents according to the selected cut-offs (OD>0.6 in positive screening and <0.6 in negative screening). The 16 clones were selected for subsequent molecular cloning and recombinant expression as also described in Seeber et al., PLoS One 9(2014), issue 2, e86184. For 15 out of the 16 clones the sequences could be successfully cloned and the sequences encoding VH and VL could be unambiguously determined. The Hit-ELISA using the screening agents was then repeated with the supernatant of the recombinant expression and the more stringent cut-off criteria (OD>1 for positive screening agent and OD at/below average background signal for negative screening agents) were fulfilled for all 15 previously selected clones for which unambiguous VH and VL sequences were retrieved.

Sequence of PSA in formalin-fixed, paraffin-embedded (FFPE) prostate tissue (human) (P07288 25-261 limits assumed): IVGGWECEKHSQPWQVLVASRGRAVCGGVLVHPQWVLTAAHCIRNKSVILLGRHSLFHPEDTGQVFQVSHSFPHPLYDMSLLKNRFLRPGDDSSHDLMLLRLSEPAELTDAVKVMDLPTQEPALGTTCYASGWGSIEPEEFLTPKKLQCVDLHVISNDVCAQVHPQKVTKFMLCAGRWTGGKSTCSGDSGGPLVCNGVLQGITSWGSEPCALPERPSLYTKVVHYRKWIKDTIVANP

Molecule	IHC staining intensity [1]	Kd (PSA(67-79)-G0F [2])	koff (PSA(67-79)-G0F [2])	kon (PSA(67-79)-G0F [2])	t/2diss (PSA(67-79)-G0F [2])	MR (Molar Ratio) (PSA(67-79)-G0F [3])	peptide concentration giving complete inhibition [4]	BL (Binding Late) (PSA(67-79)-G0F [5])	OD (PSA(67-79)-G0F [6])
anti-PSA mouse monoclonal antibody ER-PR8	3 + and 3.5 +								
2E9 (antibody, V domains shown, Rabbit monoclonal IgG (150 kDa); also called anti-1,6fucPSA antibody 2E9) VH: QSLEESGGDLVKPGASLTLTCTASGFSFSAGYDMCWVRQAPGKGLEWIACIYADGSGSTYYANWAKGRFTISLASSTTVTLQMTGLTAADTATYFCAREGADGPDYGYAAFSLWGPGTLVTVSS VL: DVVMTQTPASVEAAVGGTVTIKCQASQSISNYFSWYQQKPGQPPKLLIYKASTLASGVPSRFKGSGSGTEFTLTISDLECADAATYYCQSFYGSVTSDYGGFAFGGGTEVVVK	3.5 + and 3.25 +	0.6 nM	0.00112 s⁻¹	1.75e+06 M⁻¹ s⁻¹	10 min	2	5 µM	27 RU	> 1 OD
3H6 (antibody, V domains shown, Rabbit monoclonal IgG (150 kDa); also called anti-1,6fucPSA antibody 3H6) VH: QSLEESGGDLVKPGASLTLTCTASGFSFSSGYDMCWVRQAPGKGLEWIACIYADGSGSTYYASWAKGRFTISKPSSTTVTLQMTRLTAADTATYFCAREGADGPDYGYAAFSLWGPGTLVTVSS VL: DIVMTQTPASVEAAVGGTVTIKCQASQTISSYFSWYQQKPGQPPKLLIYKASSLASGVPSRFKGSGSGTQFTLTISDLECADAATYYCQSFYGSVSSDVGGFAFGGGTEVVVK	3.25 + and 3 +	4 nM	0.00536 s⁻¹	1.52e+06 M⁻¹ s⁻¹	2 min	1	5 µM	25 RU	> 1 OD
2C11 (antibody, V domains shown, Rabbit monoclonal IgG (150 kDa); also called anti-1,6fucPSA antibody 2C11) VH: QSLEESGGGLVKPGGTLTLTCKASGFSFGPGYDMCWVRQAPGKGLEWIACIYADGSDNTYYASWARGRFTISKTSSTTVTLQMTRLTAADTATYFCAREGADNPNYGYAALRLWGPGTLVTVSS VL: DIVMTQTPASVEAPVGGTVTIKCQASESISSYLAWYQQKPGQPPKLLIYKTSTLASGVPSRFKGSGSGTEFTLTISDLECANAATYYCQSFYGSVSSDYGGFAFGGGTEVVVK	3 + and 2.5 +	1 nM	0.00078 s⁻¹	779000 M⁻¹ s⁻¹	15 min	1	5 µM	53 RU	> 1 OD
3B10 (antibody, V domains shown, Rabbit monoclonal IgG (150 kDa); also called anti-1,6fucPSA antibody 3B10) VH: QSLEESGGGLVKPGGTLTLTCKASGFSFSSGYDMCWVRQAPGKGLEWIACIYADGSDNTYYASWAKGRFTISKTSSTTVTLQMTRLTAADTATYFCAREGADNPNYGYAALRLWGPGTLVTVSS VL: DIVMTQTPASVEAPVGGTVTIKCQATQSISSYLSWYQQKPGQPPKLLIYKTSTLASGVPSRFKGSGSGTEFTLTISDLECANAATYYCQSYYGSISSDYGGFAFGGGTEVVVK	3 + and 2.5 +	11 nM	0.0121 s⁻¹	1.14e+06 M⁻¹ s⁻¹	1 min	1	5 µM	31 RU	> 1 OD
13C5 (antibody, V domains shown, Rabbit monoclonal IgG (150 kDa); also called anti-1,6fucPSA antibody 13C5) VH: QSLEESGGDLVKPGASLTLTCTASGFSFSSGYDMCWVRQAPGKGLEWIGCIYADGSGTTYYATWAKGRFTISNPSATTVTLQMTRLTAADTATYFCAREGADNPNYGYAALRLWGPGTLVTVSS VL: DIVMTQTPASVSGAVGGTITIKCQASQSISNYFSWYQQKPGQPPKLLIYKTSTLASGVPSRFKGSGSGTEFTLTISDLECADAATYYCQSFWGSGSSDYGGFAFGGGTEVVVK	3.5 + and 3 +	0.4 nM	0.00038 s⁻¹	981000 M⁻¹ s⁻¹	31 min	2	5 µM	29 RU	> 1 OD
2H9 (antibody, V domains shown, Rabbit monoclonal IgG (150 kDa); also called anti-1,6fucPSA antibody 2H9) VH: QSLEESGGDLVKPGASLTLTCTASGFSFSSGYDMCWVRQAPGKGPEWIACIYADGSGSTYYASWAKGRFTISMTSSTTVTLQMTRLTAADTATYFCAREGADDPNYGYAALRLWGPGTLVTVSS VL: DIVMTQTPASVEAAVGGTVTIKCQASQSISNYLAWYQQKPGQPPKLLIYKTSTLASGVPSRFKGSGSGTEFTLTISDLECADAATYYCQSFYGSVSSDYGGFAFGGGTEVVVK	3 + and 2.75 +	2 nM	0.00105 s⁻¹	578000 M⁻¹ s⁻¹	11 min	2	5 µM	54 RU	> 1 OD

Reference: US20230340147A1 (published 2023)
